The source of these data is patent US20240400675A1 (published 2024).

Where two headings read alike, the source gives them in different places.

The EC50 is the midpoint of the concentration-response curve. Low readings indicate a more potent agent, high ones a less potent agent.

Test in all cases: HEK293E cell binding; avid
In assay [1] the target is T1, human CLDN6 (UniProt P56747 1-220).
T1 chain: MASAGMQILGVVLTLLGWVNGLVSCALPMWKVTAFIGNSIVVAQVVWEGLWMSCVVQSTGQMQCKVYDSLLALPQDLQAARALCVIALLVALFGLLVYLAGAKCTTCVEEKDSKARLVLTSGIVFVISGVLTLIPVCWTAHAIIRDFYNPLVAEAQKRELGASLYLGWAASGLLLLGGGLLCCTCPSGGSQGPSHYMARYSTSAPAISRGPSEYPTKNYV

The target of assay [2] is T2, human CLDN9 (UniProt O95484 1-217).
T2 chain: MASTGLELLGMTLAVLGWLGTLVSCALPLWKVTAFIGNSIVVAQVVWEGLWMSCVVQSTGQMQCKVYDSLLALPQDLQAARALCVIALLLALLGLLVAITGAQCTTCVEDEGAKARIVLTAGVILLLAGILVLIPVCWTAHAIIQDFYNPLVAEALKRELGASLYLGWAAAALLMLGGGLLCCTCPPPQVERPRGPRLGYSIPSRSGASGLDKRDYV

Assay [3] addresses T1, human CLDN6.
Assay [4] deals with T2, human CLDN9.

B1: XENP34218, humanized C6-30 H1L1 bivalent mAb (antibody, V domains shown)
VH: QVQLVQSGAEVKKPGASVKVSCKTSGYTFTEYTMHWVRQAPGQSLEWMGGIDPNNGNTHYNQKFQGRVTITVDKSASTAYMELSSLRSEDTAVYYCARIYYFGRLYFDFWGAGTLVTVSS
VL: DIQMTQSPSSLSASVGDRVTITCQASEDIYNRLAWYQQKPGKVPKLLISGATSLETGVPSRFSGSGSGKDYTFTISSLQPEDIATYYCQQYWSSPLTFGGGTKVEIKR
With B1, the EC50 in assay [1] was found to be 1.24 µg/mL; in assay [2] it was 54.2 µg/mL; in assay [3], 0.344 µg/mL; in assay [4] it was 11.6 µg/mL.

B2: XENP35090 H1.6_L1 (antibody, V domains shown)
VH: QVQLVQSGAEVKKPGASVKVSCKTSGYTFTEYTMHWVRQAPGQSLEWMGGIDPNSGNTHYNQKFQGRVTITVDKSASTAYMELSSLRSEDTAVYYCARIYYFGRLYFDFWGAGTLVTVSS
VL: DIQMTQSPSSLSASVGDRVTITCQASEDIYNRLAWYQQKPGKVPKLLISGATSLETGVPSRFSGSGSGKDYTFTISSLQPEDIATYYCQQYWSSPLTFGGGTKVEIKR
In the case of B2, the EC50 worked out at 1.56 µg/mL in assay [1], 44.6 µg/mL in assay [2], 0.903 µg/mL in assay [3] and 7.06 µg/mL in assay [4].

B3: XENP35979 H2_L1.187 (antibody, V domains shown)
VH: EVQLVQSGAEVKKPGESLRISCKTSGYTFTEYTMHWVRQMPGKSLEWMGGIDPNNGNTHYNQKFQGHVTISVDKSISTAYLQWSSLKASDTAMYYCARIYYFGRLYFDFWGAGTLVTVSS
VL: DIQMTQSPSSLSASVGDRVTITCQASEDIVNRLAWYQQKPGKVPKLLISGATSLETGVPSRFSGSGSGKDYTFTISSLQPEDIATYYCQQYWSSPLTFGGGTKVEIKR
As to B3, the results for the concentration giving a half-maximal response (EC50) in assay [3] and in assay [4] were 0.323 µg/mL and 29.2 µg/mL, respectively.

B4: XENP35888 H1.24_L1 (antibody, V domains shown)
VH: QVQLVQSGAEVKKPGASVKVSCKTSGYTFTEYTMHWVRQAPGQSLEWMGGIDPNNGNTHYNQKFQGRVTITVDKSASTAYMELSSLRSEDTAVYYCARIYYLGRLYFDFWGAGTLVTVSS
VL: DIQMTQSPSSLSASVGDRVTITCQASEDIYNRLAWYQQKPGKVPKLLISGATSLETGVPSRFSGSGSGKDYTFTISSLQPEDIATYYCQQYWSSPLTFGGGTKVEIKR
Turning to B4, the half-maximal effective concentration (EC50) in assay [3] was 0.657 µg/mL; in assay [4] it was 43.8 µg/mL.

B5: XENP35981 H2_L1.189 (antibody, V domains shown)
VH: EVQLVQSGAEVKKPGESLRISCKTSGYTFTEYTMHWVRQMPGKSLEWMGGIDPNNGNTHYNQKFQGHVTISVDKSISTAYLQWSSLKASDTAMYYCARIYYFGRLYFDFWGAGTLVTVSS
VL: DIQMTQSPSSLSASVGDRVTITCQASEDIYLRLAWYQQKPGKVPKLLISGATSLETGVPSRFSGSGSGKDYTFTISSLQPEDIATYYCQQYWSSPLTFGGGTKVEIKR
B5: the EC50 amounted to 0.404 µg/mL in assay [3] and 31.7 µg/mL in assay [4].

B6: XENP35886 H1.22_L1 (antibody, V domains shown)
VH: QVQLVQSGAEVKKPGASVKVSCKTSGYTFTEYTMHWVRQAPGQSLEWMGGIDPNNGNTHYNQKFQGRVTITVDKSASTAYMELSSLRSEDTAVYYCARILYFGRLYFDFWGAGTLVTVSS
VL: DIQMTQSPSSLSASVGDRVTITCQASEDIYNRLAWYQQKPGKVPKLLISGATSLETGVPSRFSGSGSGKDYTFTISSLQPEDIATYYCQQYWSSPLTFGGGTKVEIKR
Consider B6, for which the figures for the EC50 in assay [3] and in assay [4] were 0.941 µg/mL and 24.5 µg/mL, respectively.

B7: XENP35890 H2.11_L1 (antibody, V domains shown)
VH: EVQLVQSGAEVKKPGESLRISCKTSGYSFTEYTMHWVRQMPGKSLEWMGGIDPNNGNTHYNQKFQGHVTISVDKSISTAYLQWSSLKASDTAMYYCARIYYFGRLYFDFWGAGTLVTVSS
VL: DIQMTQSPSSLSASVGDRVTITCQASEDIYNRLAWYQQKPGKVPKLLISGATSLETGVPSRFSGSGSGKDYTFTISSLQPEDIATYYCQQYWSSPLTFGGGTKVEIKR
For B7, the EC50 amounted to 0.408 µg/mL in assay [3] and 34.1 µg/mL in assay [4].

B8: XENP34220, humanized C6-30 H2L1 bivalent mAb (antibody, V domains shown)
VH: EVQLVQSGAEVKKPGESLRISCKTSGYTFTEYTMHWVRQMPGKSLEWMGGIDPNNGNTHYNQKFQGHVTISVDKSISTAYLQWSSLKASDTAMYYCARIYYFGRLYFDFWGAGTLVTVSS
VL: DIQMTQSPSSLSASVGDRVTITCQASEDIYNRLAWYQQKPGKVPKLLISGATSLETGVPSRFSGSGSGKDYTFTISSLQPEDIATYYCQQYWSSPLTFGGGTKVEIKR
In the case of B8, the EC50 in assay [1] turned out to be 1.63 µg/mL; in assay [2] it was 43.8 µg/mL; in assay [3], 0.391 µg/mL; in assay [4] it was 11.1 µg/mL.

B9: XENP35865 H2_L1.60 (antibody, V domains shown)
VH: EVQLVQSGAEVKKPGESLRISCKTSGYTFTEYTMHWVRQMPGKSLEWMGGIDPNNGNTHYNQKFQGHVTISVDKSISTAYLQWSSLKASDTAMYYCARIYYFGRLYFDFWGAGTLVTVSS
VL: DIQMTQSPSSLSASVGDRVTITCQASEDIYNRLAWYQQKPGKVPKLLISGATSLETGVPSRFSGSGSGKDYTFTISSLQPEDIATYYCQQLWSSPLTFGGGTKVEIKR
As for B9, the EC50 is 0.686 µg/mL in assay [3] and 124 µg/mL in assay [4].

B10: XENP35891 H2.12_L1 (antibody, V domains shown)
VH: EVQLVQSGAEVKKPGESLRISCKTSGYDFTEYTMHWVRQMPGKSLEWMGGIDPNNGNTHYNQKFQGHVTISVDKSISTAYLQWSSLKASDTAMYYCARIYYFGRLYFDFWGAGTLVTVSS
VL: DIQMTQSPSSLSASVGDRVTITCQASEDIYNRLAWYQQKPGKVPKLLISGATSLETGVPSRFSGSGSGKDYTFTISSLQPEDIATYYCQQYWSSPLTFGGGTKVEIKR
B10: the concentration for a half-maximal effect (EC50) was determined as 0.474 µg/mL in assay [3] and 44.1 µg/mL in assay [4].

B11: XENP36040 H2.90_L1 (antibody, V domains shown)
VH: EVQLVQSGAEVKKPGESLRISCKTSGYTFTEYTMHWVRQMPGKSLEWMGGIDPNNLNTHYNQKFQGHVTISVDKSISTAYLQWSSLKASDTAMYYCARIYYFGRLYFDFWGAGTLVTVSS
VL: DIQMTQSPSSLSASVGDRVTITCQASEDIYNRLAWYQQKPGKVPKLLISGATSLETGVPSRFSGSGSGKDYTFTISSLQPEDIATYYCQQYWSSPLTFGGGTKVEIKR
Consider B11, for which the results for the EC50 in assay [3] and in assay [4] were 0.706 µg/mL and 66.1 µg/mL, respectively.
